Results as given in patent US20160009798A1.

What was measured:
[1] = target: human oncostatin M (OSM), in-house recombinant, mammalian-cell derived (human) (UniProt P13725); experiment: cell-based or functional assay
[2] = target: human oncostatin M (OSM), in-house recombinant, mammalian-cell derived (human) (UniProt P13725); experiment: SPR competition, human OSM captured on immobilized M71 (competitor), sample injected at 300 nM
[3] = target: human oncostatin M (OSM), in-house recombinant, mammalian-cell derived (human) (UniProt P13725); experiment: SPR competition, human OSM captured on immobilized M69 (competitor), sample injected at 300 nM
[4] = target: human oncostatin M (OSM), in-house recombinant, mammalian-cell derived (human) (UniProt P13725); experiment: SPR (Biacore 3000), mAb captured by anti-Fc, OSM as analyte
[5] = target: Cynomolgus monkey (Macaca fascicularis) oncostatin M, in-house recombinant (Cynomolgus monkey (Macaca fascicularis)); experiment: as above
[6] = target: human oncostatin M (OSM), in-house recombinant, mammalian-cell derived (human) (UniProt P13725); experiment: SPR competition, human OSM captured on immobilized M54 (competitor), sample injected at 300 nM
[7] = target: human oncostatin M (OSM), in-house recombinant, mammalian-cell derived (human) (UniProt P13725); experiment: SPR competition, human OSM captured on immobilized M2 (competitor), sample injected at 300 nM, second chip
[8] = target: human oncostatin M (OSM), in-house recombinant, mammalian-cell derived (human) (UniProt P13725); experiment: SPR competition, human OSM captured on immobilized M2 (competitor), sample injected at 300 nM
[9] = target: human oncostatin M (OSM), in-house recombinant, mammalian-cell derived (human) (UniProt P13725); experiment: SPR competition, human OSM captured on immobilized M64 (competitor), sample injected at 300 nM, second chip
[10] = target: human oncostatin M (OSM), in-house recombinant, mammalian-cell derived (human) (UniProt P13725); experiment: SPR competition, human OSM captured on immobilized M55 (competitor), sample injected at 300 nM, second chip

Sequence of Cynomolgus monkey (Macaca fascicularis) oncostatin M, in-house recombinant (Cynomolgus monkey (Macaca fascicularis)) (P13725 other isoform, or with tags, fused parts or gaps limits assumed): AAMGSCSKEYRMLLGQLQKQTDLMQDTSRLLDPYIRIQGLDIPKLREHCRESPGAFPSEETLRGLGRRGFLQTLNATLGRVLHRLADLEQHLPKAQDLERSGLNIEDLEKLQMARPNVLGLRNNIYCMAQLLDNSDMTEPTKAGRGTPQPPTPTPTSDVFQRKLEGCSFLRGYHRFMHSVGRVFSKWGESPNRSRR
Sequence of human oncostatin M (OSM), in-house recombinant, mammalian-cell derived (human) (P13725 26-221 limits assumed): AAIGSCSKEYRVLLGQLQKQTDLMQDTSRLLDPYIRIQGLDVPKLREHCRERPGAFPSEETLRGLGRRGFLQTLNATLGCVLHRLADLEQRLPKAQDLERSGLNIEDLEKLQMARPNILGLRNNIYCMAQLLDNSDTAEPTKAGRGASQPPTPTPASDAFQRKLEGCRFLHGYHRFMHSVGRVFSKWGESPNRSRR

EC50, pSTAT3 inhibition in A375 cells with 5 ng/ml hOSM [1]: 72.1 ng/ml | Binding Level (RU) [2]: 1990 RU | Binding Level (RU) [3]: 2390 RU | Kd [4]: 1.85 nM | koff [4]: 0.00217 s⁻¹ | kon [4]: 1.18e+06 M⁻¹ s⁻¹ | KD ratio Cyno/Human [5]: 10.7 | Kd [5]: 19.8 nM | koff [5]: 0.0141 s⁻¹ | kon [5]: 710000 M⁻¹ s⁻¹ | Binding Level (RU) [6]: 2900 RU | Binding Level (RU) [7]: -80 RU | Binding Level (RU) [8]: -83 RU | Binding Level (RU) [9]: 1950 RU | Binding Level (RU) [10]: 2950 RU
Substance: MAB295 (R&D Systems) (antibody)
